Data reported in patent publication US7740853.

Molecular target: mouse low affinity IgE receptor FcεRII (mouse) (UniProt P20693)
Assay: FACS analysis of 0.12A3 cells with the B3B4 antibody

UniProt P20693, sequence (P20693 whole entry): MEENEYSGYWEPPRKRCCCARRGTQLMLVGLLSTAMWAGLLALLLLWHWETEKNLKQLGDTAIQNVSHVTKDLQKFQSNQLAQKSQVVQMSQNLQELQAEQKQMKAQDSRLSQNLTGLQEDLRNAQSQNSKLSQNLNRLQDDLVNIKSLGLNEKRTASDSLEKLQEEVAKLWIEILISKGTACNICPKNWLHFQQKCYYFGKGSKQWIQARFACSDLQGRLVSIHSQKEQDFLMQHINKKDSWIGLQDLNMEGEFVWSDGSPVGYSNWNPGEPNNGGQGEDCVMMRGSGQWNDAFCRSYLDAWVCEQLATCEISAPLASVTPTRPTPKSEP

percent of cells on which the receptor was expressed: 54%
Substance: B3B4 antibody against the FcεRII receptor (Pharmigin)
